Source: paper PMC4242493, “Sequence specificity incompletely defines the genome-wide occupancy of Myc”

Assays:
[1] = biological target: T1, Myc;MaxL (Homo sapiens;Homo sapiens, UniProt P01106-1;P61244 1-439;1-160, |); experiment: EMSA; 0.01 nM probe; EMSA: 25 mM HEPES pH 7.6, 100 mM KCl, 1 mM DTT, 0.1 mM EDTA, 0.01% Triton, 30 min at room temperature; 6% polyacrylamide gel in 0.5X Tris/glycine; details: protein: recombinant;recombinant, tags: C-terminal His-tag (pET21a);C-terminal His-tag (pET21a), copies: 1;1
T1 sequence (P01106 16-454, chain 1 of 2): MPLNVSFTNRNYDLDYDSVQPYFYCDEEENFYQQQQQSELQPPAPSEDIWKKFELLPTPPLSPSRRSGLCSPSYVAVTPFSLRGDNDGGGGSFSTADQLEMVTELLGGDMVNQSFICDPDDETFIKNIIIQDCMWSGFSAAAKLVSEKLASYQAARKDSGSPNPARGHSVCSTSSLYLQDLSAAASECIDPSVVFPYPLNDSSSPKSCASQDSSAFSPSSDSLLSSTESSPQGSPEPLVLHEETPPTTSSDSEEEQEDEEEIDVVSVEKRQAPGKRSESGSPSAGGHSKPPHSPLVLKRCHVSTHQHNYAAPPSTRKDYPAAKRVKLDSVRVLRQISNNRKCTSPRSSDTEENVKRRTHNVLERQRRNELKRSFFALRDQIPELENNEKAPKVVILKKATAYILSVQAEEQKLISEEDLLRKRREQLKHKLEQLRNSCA
T1 sequence (P61244 whole entry, chain 2 of 2): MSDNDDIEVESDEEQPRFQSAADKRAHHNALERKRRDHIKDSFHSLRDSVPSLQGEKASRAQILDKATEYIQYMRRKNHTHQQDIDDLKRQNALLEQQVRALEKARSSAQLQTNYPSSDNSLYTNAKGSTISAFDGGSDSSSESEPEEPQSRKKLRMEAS

[2] = biological target: MaxL (human? (HeLa cDNA), UniProt P61244 1-160); experiment: EMSA; 0.01 nM probe; MaxL homodimer; EMSA: 25 mM HEPES pH 7.6, 100 mM KCl, 1 mM DTT, 0.1 mM EDTA, 0.01% Triton, 30 min at room temperature; 6% polyacrylamide gel in 0.5X Tris/glycine; details: protein: recombinant; tags: C-terminal His-tag (pET21a); chain copies: 2; unlabeled in silver-stained EMSA
Sequence of MaxL (P61244 whole entry): as the sequence (P61244 whole entry, chain 2 of 2) above

[3] = biological target: Myc;MaxS (human? (HeLa cDNA);human? (HeLa cDNA), UniProt P01106-1;P61244-2 1-439;1-151, |); experiment: EMSA; stoichiometric, 125 nM, silver stain; EMSA: 25 mM HEPES pH 7.6, 100 mM KCl, 1 mM DTT, 0.1 mM EDTA, 0.01% Triton, 30 min at room temperature; 6% polyacrylamide gel in 0.5X Tris/glycine; details: protein: recombinant;recombinant; tags: C-terminal His-tag (pET21a);C-terminal His-tag (pET21a); copies: 1;1; label: unlabeled
Sequence of Myc;MaxS (P01106 16-454, chain 1 of 2): as the sequence (P01106 16-454, chain 1 of 2) above
Sequence of Myc;MaxS (P61244 other isoform, or with tags, fused parts or gaps |, chain 2 of 2): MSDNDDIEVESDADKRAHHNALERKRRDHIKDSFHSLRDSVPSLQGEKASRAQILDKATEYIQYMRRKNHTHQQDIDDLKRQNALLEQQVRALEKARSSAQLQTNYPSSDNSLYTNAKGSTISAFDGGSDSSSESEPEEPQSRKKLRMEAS

[4] = biological target: T1, Myc;MaxL; experiment: as above; details: protein: recombinant;recombinant; tags: C-terminal His-tag (pET21a);C-terminal His-tag (pET21a); copies: 1;1; label: unlabeled

B1: CACGTG probe (26 bp) (dsDNA)
DNA 1: GAGGGATCGGCACGTGGGATCGGAGG
DNA 2: CCTCCGATCCCACGTGCCGATCCCTC
Kd ([1]; unlabeled in silver-stained EMSA): 100 pM
Kd [2]: 400 pM

B2: ATCTAG probe (26 bp) (dsDNA)
DNA 1: GAGGGATCGGATCTAGGGATCGGAGG
DNA 2: CCTCCGATCCCTAGATCCGATCCCTC
Kd ([1]; label: 32P 5' end-labeled on both strands (Kd)): 20000 pM

B3: GTGGTG probe (26 bp) (dsDNA)
DNA 1: GAGGGATCGGGTGGTGGGATCGGAGG
DNA 2: CCTCCGATCCCACCACCCGATCCCTC
binding result [3]: binds
binding result [4]: binds
